Measurements published in paper PMC3168117 (Nature structural & molecular biology, 2011).

Target: the molecule itself
Assay: SEC-MALS

B1: VopL W3-C (residues 115-484: three WH2 motifs and the VCD) (domain or fragment, Vibrio parahaemolyticus, UniProt Q87GE5 115-484, looked up)
chain: NLSKGAPKSSSNSLDSVNEDHSKLMEQIRQGVKLKSATKSLSADKSSADAHSKLMEELLTGGRKLKKVATSDIPAPPPLPSASTSKSPDSRNALLSEIAGFSKDRLRKTGSLETLNSSQSKDKESFEPTTHERLLSEDLFKQSPKLSEQELDELANNLADYLFQAADIDWHQVISEKTRGLTTEEMAKSEHRYVQAFCREILKYPDCYKSADVASPESPKSGGGSVIDVALKRLQTGRERLFTTTDEKGNRELKKGDAILESAINAARMAISTEEKNTILSNNVKSATFEVFCELPCMDGFAEQNGKTAFYALRAGFYSAFKNTDTAKQDITKFMKDNLQAGFSGYSYQGLTNRVAQLEAQLAALSAKLS
stoichiometry N: 2
